Reference: paper PMC6391002, “Myc-induced nuclear antigen constrains a latent intestinal epithelial cell-intrinsic anthelmintic pathway” (PLoS ONE, 2019)

B1: HD5: Reduced human enteric defensin 5, literature result (peptide, UniProt Q01523 20-94, looked up)
Defensin alpha 5: ESLQERADEATTQKQSGEDNQDLAISFAGNGLSALRTSGSQARATCYCRTGRCATRESLSGVCEISGRLYRLCCR
modifications: Defensin-5 reduced form
notes: Reduced human enteric defensin 5, literature result

Legend:
L3 TM larvae = format: cell-based, Trichuris muris
Description: Synthetic reduced (r-)Defa1, r-Defa2, r-Defa4, r-Defa5 and r-Defa6, r-Defa20, r-Defa21, r-Defa23 and r-Defa24 were purchased from Medical and Biological Laboratories Co., Ltd. (Nagoya, japan) and stored at -30°C until use. Three pairs of disulfide bonds were introduced into synthetic Defa1 and Defa4 (Medical and Biological Laboratories Co., Ltd., Nagoya, japan) by air oxidation as described previously. Using reverse-phase high-performance liquid chromatography (RP-HPLC) reaction mixtures were applied to C-18 columns (SepaxHP-C18, 4.6 x 150mm, […]; Sepax Technologies, Newark, DE, USA) in 0.1% trifluoroacetic acid with an 18–36% acetonitrile gradient developed over 30min at 1ml/min. […] Disulfide bond status of Defas was evaluated by acid-urea PAGE and MALDI-TOF MS (Voyager-DE PRO; Applied Biosystems, Carlsbad, Calif., USA) as described previously. […]
Supplementary file pone.0211244.s012.pdf: S12 Fig Cytotoxic activity of α-defensins toward L3 TM larvae. Cytotoxic activity of reduced (r-) α-defensins 5, 20, 21, 23 and 24 against L3 TM larvae was measured by lactate dehydrogenase release assay. […]
Cytotoxic activity of reduced (r-) α-defensins 1, 2, 4, 5 and 6 against L3 TM larvae was measured by lactate dehydrogenase release assay. […]
Cytotoxic activity of reduced (r-) and oxidized (o-) α-defensins 1 and 4 against L3 TM larvae was measured by lactate dehydrogenase release assay. […]

[1] = system: LPS; macrophage production of TNF; conditions: reduced peptide; ref [27]; cited from earlier work
Description: Given the prominence of α-defensin and α-defensin-related genes in the Mina genetic perturbation signature we considered whether they might contribute to the IEC-intrinsic roles of Mina in response to TM infection. Upregulation of α-defensins in Mina^ΔIEC mice could promote accelerated TM expulsion via multiple non-mutually exclusive mechanisms. First, it is well established that α-defensins can shape commensal microbiota diversity. Thus, α-defensins may act indirectly by altering commensal microbiota diversity, thereby eliminating niches essential for, or creating ones hostile toward, ...

Molecule	cytotoxicity against L3 TM larvae after oxidation of the peptide (oxidized, o-, form with three disulfide bonds), S14 Fig (L3 TM larvae)	LPS neutralization [1]	macrophage production of TNF [1]
Defa1: Synthetic reduced mouse α-defensin 1 peptide purchased from Medical and Biological Laboratories (LRDLVCYCRSRGCKGRERMNGTCRKGHLLYTLCCR; Alpha-defensin 1 reduced; UniProt P11477 59-93, looked up)	abolished by oxidation		
B1		can neutralize LPS	suppress
